The subject of this series is O=[N+]([O-])c1ccc(O[C@@H]2OC[C@@H](O)[C@H](O)[C@H]2O)cc1. The series is described as follows: purified protein. The class given is biochemical, uncultured bacterium. Particulars: 50 mM sodium phosphate pH 6, 37 °C, 20 min, 1-20 mM substrate, kcat unit not given.

Consider XylP81 (uncultured bacterium), for which the Km – broadly, the substrate concentration at which the rate is half of its maximum – amounted to 5.3 mM.

Values taken from publication PMC8543862, “Characterization of a highly xylose tolerant β-xylosidase isolated from high temperature horse manure compost” (BMC Biotechnology, 2021).
